Measured values as given in the RNAGym collection of RNA variant scans (doi:10.1073/pnas.2313332121).

B1: TPR t1 (parent)
chain: GACCAAUCUGCCCUCAGAGCUCGAGAACAUCUUCGGAUGCAGAGGAGGCAGGCUUCGGUGGCGCGAUAGCGCCAACGUCCUCAACCUCCAAUGCAUCCCACCACAUGAUGAUGCCUGAAGAGCCUUGGUUUUUUG

Variants of: B1
Experiment: polymerase ribozyme fitness, log enrichment relative to wild type (log ratio); higher = more active; in vitro selection for triplet polymerase activity
Method in brief: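 Mutant libraries were PCR-built and transcribed for each subunit of a heterodimeric triplet polymerase ribozyme and selected for one round in triplicate at −7 °C, frozen, before gel excision of extended constructs and streptavidin-bead capture. Input and output libraries were Illumina-sequenced, keeping genotypes with ≥10 input reads and ≥1 read per output. Fitness is a logarithmic ratio of genotype to wild-type enrichment, in base 2, using inverse-variance-weighted replicate averages.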

Variant	polymerase ribozyme fitness (log ratio)
G69U G117A	-0.296
G71U G135C	0.388
G69U U78G C102U	-0.192
C70U C97G	-5.32
C70A C123A	-0.557
C70U U92G A118G	-3.55
G71C G117U	-3.08
C70U C88A C115U	-3.07
G69U G93U	-1.01
G71U G113U	-1.67
G71U G113C	-1.47
G71A C86A A111C G113C	-5.65
C70U C101A	-1.9
G71U A121G U125A	1.48
C70G U78C G120A U130G	-2.19
G69U U112G C124A U133C	2.87
G71A G120U U126C	-1.26
C72A C88U	-0.32
C70G A84G	-5.21
G71U C94U G117C	-3.99
C70U C102A	-1.86

Variant	polymerase ribozyme fitness (log ratio)
C70A C124U U133C	0.767
G69U C124G	1.3
G69U C124A	1.92
G71A U133G	-0.389
G69U U126G	-0.571
C72G C102A	-2.79
G71U A103C	-5.76
G71U A103G	-5.01
G69U G110A U125A G127A	-0.849
C72U A84U C101A C115U G127A G128C	-6.94
C70U U109G	-4.21
G71C G110A	-2.2
G71A C114U G127U	-5.52
C72A C99U U109G	-6.16
C72U C79U U96A G113U	-4.45
C72U A121C U134G	1.71
C70G C124U U130C	-0.523
C70U A121C	1.13
C72G G93A C101A A111U	-4.69
G71U C73G A95C C124U G128U U129C	-7.5
C72A C97U	0.226

Variant	polymerase ribozyme fitness (log ratio)
C72A U109C	-2.36
G71C C114U	-3.55
G71C C114A	-2.75
C72U A91C G127A	-2.46
C72G A108G G120A C124G U131G	-1.26
G71C U112C	-0.487
G71C U81G C97U U106A G120A	-3.76
C72A C123G	1.56
C72U C73U	-1.09
G69U C114A A121G U130G	0.399
C70U C85A	-2.12
C70U C85U	-0.917
C70U C72G C115U G117A	-5.53
C72G U78C	-0.909
G71U C72A C89A G117A	-5.63
C70U G117C	-4.24
C72U A111U	-2.46
C70G U78C C114U	-5.32
G71A A91C C114U U133C	-2.15
C70U C88U	-0.847
G71U C89U C101U C123U G128C	-1.14

Variant	polymerase ribozyme fitness (log ratio)
C72A G93A	-0.667
C72U A95C C97U	-2.94
C72A G117U	-2.32
C72A G117C	-4.09
C72A U112C	1.48
G71A A74C A105C	-5.44
G71C C97U G117C	-5.75
C72G A119U C124G	1.57
G69U U81G U116C	-1.49
C72A A95G C97G C104A A118U G127C	-5.66
C72G C85G A100C A121C	-1.55
C70U C80U A90C C98U	-5.92
C72G U96A	-2.18
C72G U96C	-1.25
G71U A74U A95U U112G	-3.05
C70U U87C	0.738
C72A C115A	-0.416
G71U U116C	-0.726
G69U U78A A83C C102G	-3.71
G71U C80A	-5.28
G71U A100U	-1.2
